This is an account of results in a protein production outcome set (Wang et al. 2014).

This data set can be described thus: label from the status in PepcDB records.
Regarding “MLGNTLVGRYQIISHLGGGGFGETFVACDTHLPGLPKCVVKKLQPQANDPATLEIARRLFDTEAQVLYKLGSCDRIPQLLAYFEEDAEFYLVQEFIPGHDLSKELTPGKVFTQDEVTILLQEILTILEFVHQQNVIHRDINPRNLLRRQDGKLILIDFGAVKQITTQIVTPTGENKSTVIIGTPGYIPGEQAQGNPKFSSDIYAVGIVAIQALTGLLPHQLEHDADTHEIIWQNHAQVSSEFARFIDKMVCYDFRQRYAAATTALQALTELTQPASNTIAITPTLPPAKFRFNHTKKSIFIKLLLAILLTSATGIASVFVVNSINSNNATDLAKKGNTFFELQRYKDALSAYEQAVDIRPDYAPAWQGKGKTLFRLKQYQDALTAYDKAIQIQPDYVEAWSGRGFSLQNLQRYSEAIASFDKALQLNENYPEVWNARGEAFSNLKQYDQAIKSYDKAIEFNSDAYESFYNKGLALQSMKEYNEAINAYNKAIEIKSDYERAWYNLGNSLVNLNRYEDAFKAYDKAVQYKTDYAIAWLSRGNVLIILRRYPEALESFNQVIKFNPNNYQAWYGRGWSQHQNQRYAEAIESYKKAATIKPSNYEIWYSLGNSQYILQQYQEAIASYNKAVRYRPKHIESWYSRGNALFSLKQYKEAIASYEQAIKHKPDYSQAINARDEAQRQLQAATPKPVVIPVMPTPEFTNPPQDN”, the protein production entry is on record as “failed”. As for “MQNTIIQKAVNKDLNSILEITKDALNAMKTMNFHQWDENYPNEIVFQEDIQAQELYVFKENDEILGFICINEKFKPEFYKQVIFNKNYDDKAFYLHRLAVKQNAKGKGVAQKLLNFCENFALENHKASLRADTHSKNFPMNSLFKKLDFNFCGNFDIPNYQDPFLAYEKILNQKAF”, the protein production entry is “not failed”. “MFKPEEMVKIELISLARYRDIIMTYLHERGVVQLEEVPIEDIQHDAPNEYYRKATSYSITMGRLVDTLKGFLPPRKTSIKEFIFPKEREKRVYTYRGIEDLVKDVEKFLSEVEPKIREVETQLTAINNRIANIREIINTLELLSSLNIEIEYLIPGSFLAIEVGKIERERVEKLIGELKNELGDKVFILRRDLGTISLLVVVTLKEFQGKLTSILAKYGFEKVEIPRERGHPRELIPKYNELLKEEMKKLEEIRKKGREFAEKYYEDLVFYKELMDNERDKANYLSYLARTELTVALVGWLPKKNVEEVVEGIKNLTGGKVYINIREPEPNEIEEVPVKLKNPEFISQFEMLTEMYGVPKYNELDPTPILAFTYSFFFGFMLTDFMYGLLLGIVSALLVKGHSKMKDGTWKFAKIMLWSSVFTMLLGALFGSYFGNALDMAGFKVPRIMDAMEEALTVLIIALAIGLGHLFTGYVLGFIVKWKNGDKVGAILDQLSWILIILGVTLFAISSRIDLPKLAWMSVFGAGAVLFIIGEFKNNGLMALLLVISDFFGFVGNWLSYARLMALALATAGIALVINIMVQMIWGFKIGPVPLGIIVGAIVFIGGHIFSTAINALGAFVHALRLHYVEFFGTFYSGEGRRFEPFAARREISELKIEKPGGE”: the protein production result is listed as “failed”. To “MSLRIAIVGAGALGLYYGALLQRSGEDVHFLLRRDYEAIAGNGLKVFSINGDFTLPHVKGYRAPEEIGPMDLVLVGLKTFANSRYEELIRPLVEEGTQILTLQNGLGNEEALATLFGAERIIGGVAFLCSNRGEPGEVHHLGAGRIILGEFLPRDTGRIEELAAMFRQAGVDCRTTDDLKRARWEKLVWNIPFNGLCALLQQPVNLILARDVSRKLVRGIMLEVIAGANAQGLATFIADGYVDDMLEFTDAMGEYKPSMEIDREEGRPLEIAAIFRTPLAYGAREGIAMPRVEMLATLLEQATGEGHHHHHH” belongs “not failed”; to “MDEIKIEKLKKLDKKALNELIDVYMSGYEGLEEYGGEGRDYARNYIKWCWKKASDGFFVAKVGDKIVGFIVCDKDWFSKYEGRIVGAIHEFVVDKKFQGKGIGRKLLITCLDFLGKYNDTIELWVGEKNYGAMNLYEKFGFKKVGKSGIWVRMIKRQNL”, “not failed”.

As to “MGAPPPANEDDRLAALHSYNILDTAPEPLYDDITAAAAQLCRTPMALISLIDQDRQWFKSRVGMQPAETPRDLAFCAHAILQPDQMMEVGDTFVDPRFARNALVTGGPQIRFYAGAPLLTSDGVALGTLCVLDRAPRTLSDAERTALQALARQVVTTIELRQAARLLEGDALRDPLTDLWNREGLEHMLEDAAPVAKLHGLAFVLIEIDGFKRLKLQFGSDAADATLVQAARCIETEPQEPGGVARIGAAHFCMVLPGADSAQALASVQRLQTTIAAACWPADTISITAGLVCVAPGEPLDSHVLMARARHALLGAARAGRNCVQRFDGWQTDR”, the protein production result was “failed”. On to “MSLYKRKSKLIGLLLPDMSNPFFTLIARGVEDVALAHGYQVLIGNSDNDIKKAQGYLATFVSHNCTGMISTAFNENIIENTLTDHHIPFVFIDRINNEHNGISTNHFKGGQLQAEVVRKGKGKNVLIVHENLLIDAFHQRVQGIKYILDQQRIDYKMLEATLLDNDKKFIDLIKELSIDSIICSNDLLAINVLGIVQRYHFKVPAEIQIIGYDNIPFSEMTYPQITTIDQSAYHLGEIAVSQLLGLNTDNLTNNHKQLALTVKHRGSTREGHHHHHH”, for which the protein production result is reported as “not failed”. To “MLDLLVVAPHPDDGELGCGGTLARAKAEGLSTGILDLTRGEMGSKGTPEEREKEVAEASRILGLDFRGNLGFPDGGLADVPEQRLKLAQALRRLRPRVVFAPLEADRHPDHTAASRLAVAAVHLAGLRKAPLEGEPFRVERLFFYPGNHPFAPSFLVKISAFIDQWEAAVLAYRSQFTGEAASETVGPKGVEARKAMRRYWGNYLGVDYAEPFVSPLPVLYVPWSRA” belongs “not failed”; to “MDGATLAEVMRQRGINMRYLGKVLDLVLRSPARDQLDHIYKIGIGELITRSAKHIFKTYLQGVELSGLSAAISHFLNCFLSSYPNPVAHLPADELLSKKRNKRRKNRPPGAADNTAWAVMTPQELWKNICHEAKNYFDFTLECDSVDQAVETYGLQKITLLREISLKTGIQILLKEYSFDSRHKPAFTEEDVLNIFPVVKHVNPKASDAFHFFQSGQAKVQQGFLKEGCELINEALNLFNNVYGAMHVEICACLRLLARLHYIMGDYAEALSNQQKAVLMSERVMGIEHPNTIQEYMHLALYCFASSQLSTALSLLYRARYLMLLVFGEDHPEMALLDNNIGLVLHGVMEYDLSLRFLENALAVTTKYHGPKALKVALSHHLVARVYESKAEFRSALQHEKEGYTIYKTQLGEDHEKTKESSEYLKCLTQQAVALQRTMNEIYRNGSSANIPPLKFTAPSMTSVLEQLNVINGILFIPLSQKDLENLKAEVARRHQLQEANRNRDKAEEQPMAPEPEPEPEPERAVEDMGSPQTAKEGPSSLNLQG”, “failed”. As for “MRVISRNLTAWSAGLIVVAIFLGAWLSHPLHRISGFAVTPAPVGTESLPPKASYSSRFASSDLNDFVHSSAVTALPGGDLMSVWFAGSREGAGDVEIRTSRFDAQAEEWGGEQVLATRESTQTGTGKYIRKLGNPVIALAPDNRLWLFYVSVSVGGWAGSSVNAMVSSDMGASWSAPRQLVTSPFLNISTLVRGAPVFHADGSIGLPVYHEFLGKFAEYLYLSADGEVIDKFRISRGKNSLQPTVVPLDGQRAVALLRYAGETFHRVLASRTEDGGQTWSEPYPLAPSNPNSSLAAVGVPGKGLLVALNDLREGRFKLSLYSTDEQMKVWRPLPDLDKSPDPLGTPFSLEVYKEVIGQGFRASSGALRQPMEAEFLSNLDQRVCAPQGCDFEYEYPYFIRSPDGLYHLVYSWNNTFIKHVSFNEAWLAEQLL”, the entry is “failed”; as for “MTVTATSVDEPEQLEPQAAPASRGARRVRRLVPAAAATLSGVLLYVSFPPRTLWWLALPAFAVLGWALRDRTWKAGLGLGYLFGLGFLLPLLVWTGVEVGPGPWLALAVVEAVFVALVGAGIAMVSRLPAWPLWAAALWIAGEAARARAPFGGFPWGKIAFGQADGVFLPLAAAGGTPVLGFAVVLCGFGLYEIVRQVVDGRRTGVVRRGAAAVALLSVAVPVVGALAARSLVSDKAEDGTATVAVIQGNVPRSGLEFNAQRRAVLDHHARETERLAAKIKAGKVAQPDFVLWPENSSDIDPFTNPDARAVIDSAAKAVGVPISVGGVVERDGKLYNEQILWDPAKGALDTYDKRQVQPFGEYLPLRSLLGAINKNWTSMVRQDFSRGTEPGVFTMAGTKVGLATCYEAAFDWAVRDNITHGAQIISVPSNNATFDRSEMTYQQLAMSRVRAVEHSRTVTVPVTSGVSAVIMPDGKITQKTGMFVADSLVQKVPLRSSQTPATRLGILPEMVLVLVAAGGLGWSVAAVVRGRRNDALQG”, “failed”; as for “TKDFNLNVSATYNFNKNNIDELDGGKDIYYNSGWGSSAQHPSYDYVLSEGKPVGVIRGFKSAGFYTVDDFDYVDGVYKLKAGIPDISTAATGTYRRPSELQVADGQIAFPGALKLQDVDKSGIVDLDDVVDLGEVQAKHTGGFSLNGNYKNIDFGANFTYQIGGKVYNVATMSQLSGGKETGLGLNKYKDLAGAFQLYDIQNGNLVPVIEPTALKQLNANAKYALPYYEDAPILSDYVEDASYLRLNTLTVGYTLPKAWTTKAYMQKVRIYVTGGNLFCITGYSGLDPEVNSDPDKAKSYPTLGLDWGAYMRARTFTVGLNVEF”, “failed”. To “MSSPTRTSAKDRLSGVWALKGYKREWLRHDIVAGAALFALLVPAGMAYAQAAGLPPVTGLYATVVPLLVYAIVGPSRILVLGPDSALAPMIAAAIVPLAAGSSEKSVALAGLLAVLIGVIMLAGSALKLGTITGLLSKPIRLGYLNGIALLVLLSQLPAFFGIEADGDIWEKLAKVTTGVLGGGVNVTALLLGSGSLALIWIPRLLKWKVPGVLLAVVGSCVVTAVWGLNDDVKVTGVLPQGLPMPALGGIGWADALTLLPAAAGIALMAFADTGVLSQTLAAKEGKKVSGNREMAALGAANAATGLLGGFPISGSTSRTPVAVDAGAKSQMTGVVGSVLVLAFMLLAPGVTEYLPSATLAAVVIAAAIALADPAGVKRLLSLSRSESVVMLAAFLGVLTVGVLQGIVVAIALALLDFVRRAWDPYRTELGAEEGLPGYHDLERHPDGERIPGLLILRFDAPLFFGNGQVLAAFVREQLDEAPDETTDAITHVILAAEPITGIDTTALDDLVTLDEWLASKGVDLVFAELKGPVKDKLIHLGTAARFTPDHFFPTVGAAVRTLKNE” belongs “failed”; to “MNQKMIIGNAEAICLPELGITHLEARIDTGAQTSSLHVDNIDCFEKDGQSYVAFDLHPDVYHLEQVVRCTAKLKANRKVKSSNGTFEHRCVITTMLRLGDQEWPIDITLTNREKMTYMMLLGRQGMADKVLVDPSQSHLLAS”, “not failed”; to “MKKNIRLLTHNEIPRVWEIDRTELIERLYVLQQGQLVLSEQRFDMKGWPEGEAEHYTPVLLESAERGAPFWGVFEDDKLVAATSVDPQWRGQDNTLLQLSFLHISHQQRGQGLARILFDYCVEYAKQKGASGLYISSTPSENSVNFYQHMGCRLIDVPDTELYEREPEDIHLVLNFNKED”, “failed”. Consider “SIAILVIMHGESTASSMVNVANTLLDCNHAVAINMGLEDRVQDILVQAVEIANKIDKGKGILILTDMGSILTFAKVIRDATGKEVKAIDMVSTPIVIEATRKALTPEMTLEKLYFNIIESIKKHYGDMEVTYAEKDNGGRY”, for which the protein production result is on record as “not failed”. As to “MLFRHKGILYLFLSSLIISAANPVIAKLITLGNEHLVNGRNPISFCNVLFAGNFIAVLTLILIHFRELKEFQPEHLTAKNWCLIFLAALFAGFLTPTLFFLGLMYTNVINVVLISNLQIPMTLLAGWIFLGEVPNIRVTTGAFLATLGVFAIVILQYWLGGAGALTPNPEMKTGPLFIFLSSIPRSGEICIFLAVVSSTASTIIGFHALRRLPHYLFSILKMLLGLVLFFFIVISMFGWHHFADLFSPFLWEWMLFYGSVIIALRYYFSMLGMKHAKVAEVAISSSIIPLMSIIFSYLILGEVPGISQIIGGSLILFGIYVALTGKLQAPEKTEILEKPSGFSGV”, the protein production entry was “failed”. As for “MEIYLVFVDAASNSNKFWTAKVEQNQLTVQWDRVGYKAQTKVHQFTSQAQAANKYNNLVFEKKAKGYQESQPQIESCGVVDIRRAMQLLNGLRSYVTNRNFNADYINLLNQYLKIIPTPLGMQLEPYRIFTSVADVDHQRELLSSLIPATPVAVTQAKQMPESQEKIVSLRGIHKNLWRHFLEHHHHHH”, the entry is “failed”.
